{
  "source": "patent US20250296984A1",
  "about": "(THELPER, published 2025)",
  "binders": {"B1": {"name": "US28-13-5G6-1D3 (antibody, V domains shown)", "VH": "EVKLVESGGGLVQPGGSLRLACATSGFTFTDYYMSWVRQPPGKALEWLGFIRSKANGYTTEYSASVKGRFTISRDNSQSILYLQMNTLRSEDSATYYCARDERRTAWLAYWGQGTLVTVSA", "VL": "DVLMTQTPLSLPVSLGDQASISCRSSQSIVHSNGNTYLDWYLQKPGQSPKLLIYKVSNRFSGVPDRFSGSGSGTDFTLKISRVEAEDLGVYYCFQGSHVPTWTFGGGTKLEIKR", "notes": "also called US28-13-5G6-1D3 rAb; 13-5G6-1D3 clone"}},
  "key": {"[1]": {"target": "T1, US28 of HCMV strain TB40/E fused to a C-terminal 6His tag (human cytomegalovirus (HCMV) strain …, UniProt P69332 1-354)", "T1 construct": "also called TB40/E form of US28", "T1 chain": "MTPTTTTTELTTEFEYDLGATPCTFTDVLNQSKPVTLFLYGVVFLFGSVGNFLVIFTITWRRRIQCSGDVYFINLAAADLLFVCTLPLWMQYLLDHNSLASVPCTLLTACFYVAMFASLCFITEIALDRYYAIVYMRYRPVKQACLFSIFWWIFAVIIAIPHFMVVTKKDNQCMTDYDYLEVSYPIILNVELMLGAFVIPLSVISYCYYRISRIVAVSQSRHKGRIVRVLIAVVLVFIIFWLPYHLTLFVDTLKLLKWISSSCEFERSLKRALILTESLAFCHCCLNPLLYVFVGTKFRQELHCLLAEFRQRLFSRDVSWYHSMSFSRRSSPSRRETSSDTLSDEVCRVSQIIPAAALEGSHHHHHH", "assay": "flow cytometry, CHO cells (FIG. 21C)"}, "[2]": {"target": "T1, US28 of HCMV strain TB40/E fused to a …", "assay": "flow cytometry, CHO cells (FIG. 21D)"}, "[3]": {"target": "T2, mutated US28 (artificial form with all known US28 mutations) fused to a C-terminal 6His tag (artificial variant of human …, UniProt P69332 1-354)", "T2 construct": "also called mutated strain; CHO-mutated strain", "T2 chain": "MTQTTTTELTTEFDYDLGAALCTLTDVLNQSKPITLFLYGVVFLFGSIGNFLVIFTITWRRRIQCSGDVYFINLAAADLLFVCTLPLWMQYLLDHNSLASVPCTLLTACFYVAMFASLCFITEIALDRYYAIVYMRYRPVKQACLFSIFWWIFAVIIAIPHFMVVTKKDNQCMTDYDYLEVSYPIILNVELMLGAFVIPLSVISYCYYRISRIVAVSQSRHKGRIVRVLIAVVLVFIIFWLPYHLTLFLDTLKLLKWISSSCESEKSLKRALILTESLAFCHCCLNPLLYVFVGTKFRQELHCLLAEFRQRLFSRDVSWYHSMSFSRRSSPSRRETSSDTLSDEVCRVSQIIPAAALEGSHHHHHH", "assay": "flow cytometry, CHO cells expressing the mutated US28"}, "[4]": {"target": "T3, US28 of HCMV strain DB fused to a C-terminal 6His tag (human cytomegalovirus (HCMV) strain DB, UniProt P69332 1-354)", "T3 chain": "T1 chain with T8A, E15D, L18E, G19A, T24V, V49I, D170N", "assay": "flow cytometry, CHO cells expressing US28 of strain DB"}, "[5]": {"target": "T3, US28 of HCMV strain DB fused to a …", "assay": "flow cytometry, CHO-US28 against control CHO cells"}, "[6]": {"target": "T3, US28 of HCMV strain DB fused to a …", "assay": "flow cytometry, CHO-US28 against control CHO cells"}, "[7]": {"target": "T1, US28 of HCMV strain TB40/E fused to a …", "assay": "flow cytometry, CHO cells expressing US28 of strain TB40/E"}, "[8]": {"target": "T4, US28 of HCMV strain Ad169 (human cytomegalovirus (HCMV) strain …, UniProt P69332 1-354)", "T4 sequence": "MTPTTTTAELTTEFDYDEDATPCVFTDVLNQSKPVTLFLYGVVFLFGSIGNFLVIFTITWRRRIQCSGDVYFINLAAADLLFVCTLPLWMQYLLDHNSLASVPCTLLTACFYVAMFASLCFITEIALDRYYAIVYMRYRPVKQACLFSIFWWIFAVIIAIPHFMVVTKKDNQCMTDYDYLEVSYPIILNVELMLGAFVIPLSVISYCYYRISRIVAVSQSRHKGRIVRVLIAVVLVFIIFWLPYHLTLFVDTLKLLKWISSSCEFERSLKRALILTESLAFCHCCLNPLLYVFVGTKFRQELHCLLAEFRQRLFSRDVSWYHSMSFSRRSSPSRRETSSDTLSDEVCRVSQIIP", "assay": "flow cytometry, HCMV Ad169 infected against Mock MRC-5 cells"}, "[9]": {"target": "T2, mutated US28 (artificial form with all …)", "assay": "flow cytometry, CHO-mutated strain against control CHO cells (FIG. 21B)"}},
  "note": "Where a chain is given by its changes, count along the chain named. Like-named read-outs stand apart in the source and are kept apart here.",
  "data": [
    {"binder": "B1", "values": [
      {"measurement": "% change in absolute binding between the DB and TB40/E forms", "setting": "[1]", "value": "< 10", "unit": "%"},
      {"measurement": "% retention of binding activity between the DB and TB40/E forms", "setting": "[2]", "value": "~100", "unit": "%"},
      {"measurement": "% of cells bound", "setting": "[3]", "value": 12.9, "unit": "%"},
      {"measurement": "% of cells bound", "setting": "[4]", "value": 16.6, "unit": "%"},
      {"measurement": "binding specificity comparative to the specificity displayed by VUN100", "setting": "[5]", "value": 1.65, "unit": "fold"},
      {"measurement": "binding specificity comparative to the specificity displayed by VUN100", "setting": "[6]", "value": 1.65, "unit": "fold"},
      {"measurement": "% of cells bound", "setting": "[7]", "value": 18.2, "unit": "%"},
      {"measurement": "fold binding, infected over uninfected cells", "setting": "[8]", "value": "~16", "unit": "fold"},
      {"measurement": "specificity (US28 cells over control cells)", "setting": "[9]", "value": "~15", "unit": "fold"}
    ]}
  ]
}
